Reference: patent EP4039268A1

Columns and labels:
[1] = biological target: monomeric SARS-CoV-2 receptor binding domain (RBD-H6) (SARS-CoV-2) (UniProt P0DTC2); assay: ELISA screen
[2] = biological target: human recombinant soluble ACE2 (human) (UniProt Q9BYF1); assay: ELISA screen
[3] = biological target: full-length trimeric SARS-CoV-2 Spike protein (Spike-H6) (SARS-CoV-2); assay: ELISA screen
[4] = biological target: full-length trimeric SARS-CoV-2 Spike protein (Spike-H6) (SARS-CoV-2); assay: AFM single molecule force spectroscopy, Evans model
[5] = biological target: full-length trimeric SARS-CoV-2 Spike protein (Spike-H6) (SARS-CoV-2); assay: SPR, Spike immobilized, bivalent analyte model, first binding step
[6] = biological target: full-length trimeric SARS-CoV-2 Spike protein (Spike-H6) (SARS-CoV-2); assay: high-speed AFM, from volumes
[7] = biological target: full-length trimeric SARS-CoV-2 Spike protein (Spike-H6) (SARS-CoV-2); assay: inhibition of Spike binding to Vero E6 cells, AFM

Sequence of human recombinant soluble ACE2 (human) (Q9BYF1 18-740 limits assumed): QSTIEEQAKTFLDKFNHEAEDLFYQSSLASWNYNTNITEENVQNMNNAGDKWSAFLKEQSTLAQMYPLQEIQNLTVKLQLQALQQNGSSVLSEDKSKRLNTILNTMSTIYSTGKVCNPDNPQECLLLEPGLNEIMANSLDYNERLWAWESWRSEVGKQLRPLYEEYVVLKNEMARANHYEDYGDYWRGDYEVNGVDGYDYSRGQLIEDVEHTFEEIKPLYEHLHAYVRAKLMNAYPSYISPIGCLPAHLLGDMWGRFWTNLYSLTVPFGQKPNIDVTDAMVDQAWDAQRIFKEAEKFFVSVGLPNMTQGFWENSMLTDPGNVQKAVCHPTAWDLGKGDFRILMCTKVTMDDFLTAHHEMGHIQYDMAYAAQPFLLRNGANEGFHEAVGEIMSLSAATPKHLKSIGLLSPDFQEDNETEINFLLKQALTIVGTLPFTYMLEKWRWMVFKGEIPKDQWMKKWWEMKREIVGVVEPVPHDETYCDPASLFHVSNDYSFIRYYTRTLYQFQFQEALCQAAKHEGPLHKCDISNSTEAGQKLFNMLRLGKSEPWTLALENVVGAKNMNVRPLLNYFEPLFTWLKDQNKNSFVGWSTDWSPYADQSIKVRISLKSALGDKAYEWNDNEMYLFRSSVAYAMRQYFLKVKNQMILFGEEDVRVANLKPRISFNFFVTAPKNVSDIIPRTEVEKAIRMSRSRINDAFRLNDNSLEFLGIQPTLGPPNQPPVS
Sequence of human CLEC4G-hIgG1 Fc-fusion protein (Fc fusion) (Q6UXB4 53-293, form in doubt): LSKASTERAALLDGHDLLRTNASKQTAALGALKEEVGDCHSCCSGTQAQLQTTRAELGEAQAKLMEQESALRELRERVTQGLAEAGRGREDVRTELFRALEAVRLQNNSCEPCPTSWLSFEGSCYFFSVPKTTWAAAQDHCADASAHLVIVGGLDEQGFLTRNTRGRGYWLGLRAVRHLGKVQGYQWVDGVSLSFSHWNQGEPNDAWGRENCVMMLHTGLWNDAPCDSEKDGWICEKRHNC
Sequence of Ly75_2 CRD-mouse IgG2a-Fc fusion protein (Q60767 other isoform, or with tags, fused parts or gaps limits assumed): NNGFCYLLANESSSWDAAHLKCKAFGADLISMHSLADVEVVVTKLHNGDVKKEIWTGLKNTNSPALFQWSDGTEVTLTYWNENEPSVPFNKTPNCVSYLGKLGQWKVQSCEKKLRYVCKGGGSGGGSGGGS
Sequence of Clec2i CRD-mouse IgG2a-Fc fusion protein (Q9WVF9 other isoform, or with tags, fused parts or gaps limits assumed): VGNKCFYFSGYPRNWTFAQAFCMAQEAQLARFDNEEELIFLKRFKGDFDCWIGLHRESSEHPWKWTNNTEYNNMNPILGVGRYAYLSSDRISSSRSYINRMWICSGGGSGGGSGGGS
Sequence of Ly75_5 CRD-mouse IgG2a-Fc fusion protein (Q60767 other isoform, or with tags, fused parts or gaps limits assumed): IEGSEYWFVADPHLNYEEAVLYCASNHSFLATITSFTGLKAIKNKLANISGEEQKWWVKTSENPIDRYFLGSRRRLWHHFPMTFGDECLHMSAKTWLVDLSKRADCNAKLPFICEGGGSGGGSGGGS
Sequence of Asgr1 CRD-mouse IgG2a-Fc fusion protein (P34927 other isoform, or with tags, fused parts or gaps limits assumed): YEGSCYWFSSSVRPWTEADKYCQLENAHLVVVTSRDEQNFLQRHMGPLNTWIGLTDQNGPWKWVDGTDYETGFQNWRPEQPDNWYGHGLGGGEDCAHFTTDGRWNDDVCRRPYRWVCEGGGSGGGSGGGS
Sequence of Ncan CRD-mouse IgG2a-Fc fusion protein (P55066 other isoform, or with tags, fused parts or gaps limits assumed): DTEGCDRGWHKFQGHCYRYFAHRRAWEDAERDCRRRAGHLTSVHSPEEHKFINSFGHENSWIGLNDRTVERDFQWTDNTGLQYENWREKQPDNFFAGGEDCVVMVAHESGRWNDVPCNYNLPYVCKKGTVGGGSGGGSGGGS
Sequence of Lgals6_2 CRD-mouse IgG2a-Fc fusion protein (O54891 other isoform, or with tags, fused parts or gaps limits assumed): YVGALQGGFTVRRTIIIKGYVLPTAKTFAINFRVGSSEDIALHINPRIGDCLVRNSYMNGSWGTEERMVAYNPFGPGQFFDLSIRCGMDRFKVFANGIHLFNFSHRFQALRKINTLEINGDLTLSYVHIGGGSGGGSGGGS
Sequence of Clec2h CRD-mouse IgG2a-Fc fusion protein (Q8C1T8 other isoform, or with tags, fused parts or gaps limits assumed): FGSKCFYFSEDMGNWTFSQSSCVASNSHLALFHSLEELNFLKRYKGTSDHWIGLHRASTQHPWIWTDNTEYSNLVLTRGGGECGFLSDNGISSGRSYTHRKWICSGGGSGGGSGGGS
Sequence of Clec2g CRD-mouse IgG2a-Fc fusion protein (Q9D676 other isoform, or with tags, fused parts or gaps limits assumed): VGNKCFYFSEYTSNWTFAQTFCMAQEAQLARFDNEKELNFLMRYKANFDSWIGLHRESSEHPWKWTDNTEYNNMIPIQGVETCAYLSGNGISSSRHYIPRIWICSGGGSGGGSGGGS
Sequence of Clec4g CRD-mouse IgG2a-Fc fusion protein (Q8BNX1 other isoform, or with tags, fused parts or gaps limits assumed): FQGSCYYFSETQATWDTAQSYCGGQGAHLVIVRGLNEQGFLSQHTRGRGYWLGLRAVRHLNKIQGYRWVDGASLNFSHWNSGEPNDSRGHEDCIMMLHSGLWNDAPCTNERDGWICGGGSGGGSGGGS
Sequence of Bcan CRD-mouse IgG2a-Fc fusion protein (Q61361 other isoform, or with tags, fused parts or gaps limits assumed): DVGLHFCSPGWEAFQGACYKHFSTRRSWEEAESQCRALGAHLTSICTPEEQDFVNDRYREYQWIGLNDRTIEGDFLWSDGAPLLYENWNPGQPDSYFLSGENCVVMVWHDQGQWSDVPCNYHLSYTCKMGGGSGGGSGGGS
Sequence of Ly75_1 CRD-mouse IgG2a-Fc fusion protein (Q60767 other isoform, or with tags, fused parts or gaps limits assumed): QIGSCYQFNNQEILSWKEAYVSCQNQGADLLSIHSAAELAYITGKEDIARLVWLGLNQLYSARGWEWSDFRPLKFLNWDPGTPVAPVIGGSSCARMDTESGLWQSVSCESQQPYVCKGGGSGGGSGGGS
Sequence of Olr1 CRD-mouse IgG2a-Fc fusion protein (Q9EQ09 other isoform, or with tags, fused parts or gaps limits assumed): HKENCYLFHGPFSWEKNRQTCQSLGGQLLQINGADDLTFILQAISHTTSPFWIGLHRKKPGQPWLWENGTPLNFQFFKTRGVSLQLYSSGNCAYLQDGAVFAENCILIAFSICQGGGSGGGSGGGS
Sequence of Lgals4_1 CRD-mouse IgG2a-Fc fusion protein (Q8K419 other isoform, or with tags, fused parts or gaps limits assumed): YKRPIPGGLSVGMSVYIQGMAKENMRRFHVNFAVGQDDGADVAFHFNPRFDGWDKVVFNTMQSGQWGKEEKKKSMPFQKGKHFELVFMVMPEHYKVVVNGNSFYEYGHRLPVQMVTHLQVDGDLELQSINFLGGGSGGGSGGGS

“Asgr1 CRD-mouse IgG2a-Fc fusion protein (from UniProt P34927 160-277)” showed a Mean normalized OD [1] of 0.697 OD.
With “Bcan CRD-mouse IgG2a-Fc fusion protein (from UniProt Q61361 658-786)” the Mean normalized OD [1] was 0.101 OD.
Work on “Cd33 CRD-mouse IgG2a-Fc fusion protein (from UniProt Q63994 17-120)” yielded a Mean normalized OD [2] of 0.216 OD, a Mean normalized OD [3] of 0.023 OD and a Mean normalized OD [1] of 0.009 OD.
“Cd93 CRD-mouse IgG2a-Fc fusion protein (from UniProt O89103 31-173)” showed a Mean normalized OD [2] of -0.163 OD, a Mean normalized OD [3] of 0 OD and a Mean normalized OD [1] of -0.005 OD.
For “Cd209f CRD-mouse IgG2a-Fc fusion protein”, the Mean normalized OD [2] was 0.182 OD, the Mean normalized OD [3] was 0.018 OD and the Mean normalized OD [1] was 0.015 OD.
“Clec2f CRD-mouse IgG2a-Fc fusion protein” showed a Mean normalized OD [2] of -0.261 OD, a Mean normalized OD [3] of -0.02 OD and a Mean normalized OD [1] of 0.045 OD.
“Clec2g CRD-mouse IgG2a-Fc fusion protein (from UniProt Q9D676 150-254)” gave a Mean normalized OD [1] of 0.421 OD.
In the case of “Clec2h CRD-mouse IgG2a-Fc fusion protein (from UniProt Q8C1T8 97-201)”, the Mean normalized OD [1] is reported as 0.237 OD.
“Clec2i CRD-mouse IgG2a-Fc fusion protein (from UniProt Q9WVF9 99-203)” showed a Mean normalized OD [1] of 0.178 OD.
With “Clec2j CRD-mouse IgG2a-Fc fusion protein” the Mean normalized OD [2] was 0.059 OD, the Mean normalized OD [3] was 0.006 OD and the Mean normalized OD [1] was 0.005 OD.
For “Clec4a1 CRD-mouse IgG2a-Fc fusion protein”, the Mean normalized OD [2] was -0.004 OD, the Mean normalized OD [3] was 0.014 OD and the Mean normalized OD [1] was 0.024 OD.
With “Clec4a3 CRD-mouse IgG2a-Fc fusion protein” the Mean normalized OD [2] was 0.001 OD, the Mean normalized OD [3] was 0.002 OD and the Mean normalized OD [1] was 0.002 OD.
“Clec4a4 CRD-mouse IgG2a-Fc fusion protein” gave a Mean normalized OD [2] of -0.009 OD, a Mean normalized OD [3] of 0.004 OD and a Mean normalized OD [1] of 0.007 OD.
For “Clec4a CRD-mouse IgG2a-Fc fusion protein (from UniProt Q9QZ15 126-233)”, the Mean normalized OD [2] was 0.062 OD, the Mean normalized OD [3] was 0.014 OD and the Mean normalized OD [1] was 0.036 OD.
For “Clec4b1 CRD-mouse IgG2a-Fc fusion protein”, the Mean normalized OD [2] was 0.001 OD, the Mean normalized OD [3] was 0.013 OD and the Mean normalized OD [1] was 0.023 OD.
“Clec4b2 CRD-mouse IgG2a-Fc fusion protein” showed a Mean normalized OD [2] of 0.008 OD, a Mean normalized OD [3] of -0.013 OD and a Mean normalized OD [1] of 0.003 OD.
In the case of “Clec4f CRD-mouse IgG2a-Fc fusion protein (from UniProt P70194 438-538)”, the Mean normalized OD [2] is reported as 0.194 OD, the Mean normalized OD [3] is reported as -0.146 OD and the Mean normalized OD [1] is reported as 0.362 OD.
Substance “Clec4g CRD-mouse IgG2a-Fc fusion protein (from UniProt Q8BNX1 172-287)” has a Mean normalized OD [1] of 0.451 OD.
Work on “Colec12 CRD-mouse IgG2a-Fc fusion protein (from UniProt Q8K4Q8 614-731)” yielded a Mean normalized OD [2] of 0.317 OD.
With “Fcer2a CRD-mouse IgG2a-Fc fusion protein (from UniProt P20693 185-298)” the Mean normalized OD [2] was -0.004 OD, the Mean normalized OD [3] was 0.007 OD and the Mean normalized OD [1] was 0 OD.
With Gm156 CRD-mouse IgG2a-Fc fusion protein the Mean normalized OD [2] was 0.009 OD, the Mean normalized OD [3] was 0.074 OD and the Mean normalized OD [1] was 0.048 OD.
Work on IgG2a yielded a Mean normalized OD [2] of -0.003 OD, a Mean normalized OD [3] of 0.001 OD and a Mean normalized OD [1] of 0 OD.
“Klrb1b_1 CRD-mouse IgG2a-Fc fusion protein” was tested, and the Mean normalized OD [2] was 0.003 OD, the Mean normalized OD [3] was 0.001 OD and the Mean normalized OD [1] was 0.002 OD.
Klrc1 CRD-mouse IgG2a-Fc fusion protein gave a Mean normalized OD [2] of 0.039 OD, a Mean normalized OD [3] of 0.006 OD and a Mean normalized OD [1] of 0.01 OD.
With Klrc2 CRD-mouse IgG2a-Fc fusion protein the Mean normalized OD [2] was 0.104 OD, the Mean normalized OD [3] was 0.025 OD and the Mean normalized OD [1] was 0.035 OD.
Work on Klrc3 CRD-mouse IgG2a-Fc fusion protein yielded a Mean normalized OD [2] of 0.086 OD, a Mean normalized OD [3] of -0.007 OD and a Mean normalized OD [1] of 0.061 OD.
With “Lgals4_1 CRD-mouse IgG2a-Fc fusion protein (from UniProt Q8K419 19-150)” the Mean normalized OD [1] was 0.143 OD.
“Lgals6_2 CRD-mouse IgG2a-Fc fusion protein (from UniProt O54891 173-301)” was tested, and the Mean normalized OD [2] was 0.528 OD and the Mean normalized OD [1] was 0.073 OD.
Work on “Lgals9_2 CRD-mouse IgG2a-Fc fusion protein (from UniProt O08573 225-353)” yielded a Mean normalized OD [2] of 0.367 OD.
For “Ly75_1 CRD-mouse IgG2a-Fc fusion protein (from UniProt Q60767 225-341)”, the Mean normalized OD [1] was 0.29 OD.
Substance “Ly75_2 CRD-mouse IgG2a-Fc fusion protein (from UniProt Q60767 368-486)” has a Mean normalized OD [1] of -0.206 OD.
In the case of “Ly75_5 CRD-mouse IgG2a-Fc fusion protein (from UniProt Q60767 818-932)”, the Mean normalized OD [1] is reported as 0.14 OD.
With “Mag CRD-mouse IgG2a-Fc fusion protein (from UniProt P20917 22-120)” the Mean normalized OD [2] was 0.032 OD, the Mean normalized OD [3] was 0.008 OD and the Mean normalized OD [1] was 0.004 OD.
“Mbl1 CRD-mouse IgG2a-Fc fusion protein (from UniProt P39039 144-239)” gave a Mean normalized OD [2] of 0.098 OD, a Mean normalized OD [3] of 0.043 OD and a Mean normalized OD [1] of 0.019 OD.
With Mgl2 CRD-mouse IgG2a-Fc fusion protein the Mean normalized OD [2] was 0.145 OD, the Mean normalized OD [3] was 0.598 OD and the Mean normalized OD [1] was 1.31 OD.
“Ncan CRD-mouse IgG2a-Fc fusion protein (from UniProt P55066 1036-1165)” showed a Mean normalized OD [1] of 0.279 OD.
In the case of “Olr1 CRD-mouse IgG2a-Fc fusion protein (from UniProt Q9EQ09 242-355)”, the Mean normalized OD [1] is reported as 0.379 OD.
Work on Prg2 CRD-mouse IgG2a-Fc fusion protein yielded a Mean normalized OD [2] of -0.014 OD, a Mean normalized OD [3] of 0.009 OD and a Mean normalized OD [1] of 0.001 OD.
Substance Prg3 CRD-mouse IgG2a-Fc fusion protein has a Mean normalized OD [2] of -0.298 OD, a Mean normalized OD [3] of -0.271 OD and a Mean normalized OD [1] of -0.057 OD.
Reg3d CRD-mouse IgG2a-Fc fusion protein showed a Mean normalized OD [2] of 0.152 OD, a Mean normalized OD [3] of 0.019 OD and a Mean normalized OD [1] of 0.019 OD.
Substance “Siglec5 CRD-mouse IgG2a-Fc fusion protein” has a Mean normalized OD [2] of 0.146 OD, a Mean normalized OD [3] of 0.041 OD and a Mean normalized OD [1] of 0.019 OD.
“Siglec10 CRD-mouse IgG2a-Fc fusion protein (from UniProt Q80ZE3 26-138)” was tested, and the Mean normalized OD [2] was 0.299 OD.
“Siglech CRD-mouse IgG2a-Fc fusion protein” was tested, and the Mean normalized OD [2] was -0.003 OD, the Mean normalized OD [3] was 0.003 OD and the Mean normalized OD [1] was 0 OD.
For “Vcan CRD-mouse IgG2a-Fc fusion protein (from UniProt Q62059 3138-3252)”, the Mean normalized OD [2] was 0.332 OD.
In the case of “human CD209-hIgG1 Fc-fusion protein (from UniProt Q9NNX6 62-404) (Fc fusion)”, the koff [4] is reported as 0.008 s⁻¹, the xβ (length of dissociation path) [4] is reported as 0.73 nm and the Kd [5] is reported as 2.39 µM. It also gave a koff [5] of 0.0316 s⁻¹, a kon [5] of 13200 M⁻¹ s⁻¹ and a molecules bound per trimeric Spike (average) (molecules per trimeric Spike) [6] of 3.6.
With “human CLEC4G-hIgG1 Fc-fusion protein (Fc fusion)” the Ki [7] was 0.035 to 0.07 µM, the koff [4] was 0.007 s⁻¹ and the xβ (length of dissociation path) [4] was 0.64 nm. For the same substance, the Kd [5] was 0.259 µM, the koff [5] was 0.0201 s⁻¹ and the kon [5] was 77700 M⁻¹ s⁻¹. The molecules bound per trimeric Spike (average) (molecules per trimeric Spike) [6] was 3.5.
